How the values were obtained:
[1] = target: human HER2 (ErbB2) expressed on the surface of cell lines and primary cells (human) (UniProt P04626); assay: flow cytometry, JIMT1 cells, [Ab] 5 ug/ml
[2] = target: human HER2 (ErbB2) expressed on the surface of cell lines and primary cells (human) (UniProt P04626); assay: flow cytometry, ZR751 cells, [Ab] 5 ug/ml
[3] = target: human HER2 (ErbB2) expressed on the surface of cell lines and primary cells (human) (UniProt P04626); assay: flow cytometry, JIMT1 cells, [Ab] 10 ug/ml
[4] = target: human HER2 (ErbB2) expressed on the surface of cell lines and primary cells (human) (UniProt P04626); assay: flow cytometry, JIMT1 cells, [Ab] 20 ug/ml
[5] = target: human HER2 (ErbB2) expressed on the surface of cell lines and primary cells (human) (UniProt P04626); assay: flow cytometry, ZR751 cells, [Ab] 10 ug/ml
[6] = target: human HER2 (ErbB2) expressed on the surface of cell lines and primary cells (human) (UniProt P04626); assay: flow cytometry, ZR751 cells, [Ab] 20 ug/ml
[7] = target: human HER2 (ErbB2) expressed on the surface of cell lines and primary cells (human) (UniProt P04626); assay: flow cytometry, ZR751 cells, [Ab] 40 ug/ml
[8] = target: human HER2 (ErbB2) expressed on the surface of cell lines and primary cells (human) (UniProt P04626); assay: flow cytometry, ZR751 cells, [Ab] 2.5 ug/ml
[9] = target: human HER2 (ErbB2) expressed on the surface of cell lines and primary cells (human) (UniProt P04626); assay: flow cytometry, MDAMB361 cells, [Ab] 5 ug/ml
[10] = target: human HER2 (ErbB2) expressed on the surface of cell lines and primary cells (human) (UniProt P04626); assay: flow cytometry, JIMT1 cells, [Ab] 1.25 ug/ml
[11] = target: human HER2 (ErbB2) expressed on the surface of cell lines and primary cells (human) (UniProt P04626); assay: flow cytometry, ZR751 cells, [Ab] 0.31 ug/ml
[12] = target: human HER2 (ErbB2) expressed on the surface of cell lines and primary cells (human) (UniProt P04626); assay: flow cytometry, ZR751 cells, [Ab] 0.63 ug/ml
[13] = target: human HER2 (ErbB2) expressed on the surface of cell lines and primary cells (human) (UniProt P04626); assay: flow cytometry, ZR751 cells, [Ab] 1.25 ug/ml
[14] = target: human HER2 (ErbB2) expressed on the surface of cell lines and primary cells (human) (UniProt P04626); assay: flow cytometry, MDAMB361 cells, [Ab] 10 ug/ml
[15] = target: human HER2 (ErbB2) expressed on the surface of cell lines and primary cells (human) (UniProt P04626); assay: flow cytometry, MDAMB361 cells, [Ab] 20 ug/ml
[16] = target: human HER2 (ErbB2) expressed on the surface of cell lines and primary cells (human) (UniProt P04626); assay: flow cytometry, MDAMB361 cells, [Ab] 40 ug/ml
[17] = target: human HER2 (ErbB2) expressed on the surface of cell lines and primary cells (human) (UniProt P04626); assay: flow cytometry, MDAMB361 cells, [Ab] 1.25 ug/ml

For IC1 (isotype control antibody), the MFI A.U. [1] was 190 A.U, the MFI A.U. [2] was 696 A.U and the MFI A.U. [3] was 240 A.U. The MFI A.U. [4] was 516 A.U, the MFI A.U. [5] was 1080 A.U and the MFI A.U. [6] was 2540 A.U. For the same substance, the MFI A.U. [7] was 3320 A.U, the MFI A.U. [8] was 484 A.U and the MFI A.U. [9] was 253 A.U. For the same substance, the MFI A.U. [10] was 183 A.U, the MFI A.U. [11] was 199 A.U and the MFI A.U. [12] was 271 A.U. For the same substance, the MFI A.U. [13] was 312 A.U, the MFI A.U. [14] was 605 A.U and the MFI A.U. [15] was 617 A.U. For the same substance, the MFI A.U. [16] was 558 A.U and the MFI A.U. [17] was 202 A.U.

— patent US20240254255A1
